Experimental data reported in the supplement of paper PMC12042874.
± gives the uncertainty stated by the source.

Assay: amyloid nucleation score (Sup35N fusion, yeast selection) (log enrichment); library NNK1; higher = more nucleation; inactive = no reads after selection
Outline: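 The nucleation score is the log enrichment of output over input reads, calculated with DiMSum and centred on the mode score of non-aggregating sequences. Sequences with under 100 input reads were excluded. Reads came from Illumina sequencing of plasmid inserts from psi-negative yeast expressing Sup35N fused to peptides of 20 random codons, induced 24 hours with 100 μM copper sulfate and grown 7 days at 30°C without adenine and uracil.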

Substance | amyloid nucleation score
ATSPLCCRH | 0.022 ± 0.28
AILRHRSVNSGGELCGSKFP | 0.293 ± 1
MCREYVFDNSPVT | -0.89 ± 1.2
ALDIFTNTKSVIGYVGIGKC | 0.194 ± 0.52
PNCDAYWVNWFKLRCLSHLF | -0.489 ± 1.7
GFIVTGNVGTFNALLERVLT | 4.04 ± 0.13
DPQTGDGVLAMNKWEPYRGL | 0.697 ± 0.48
WVLTVVFVDKWREAYMYATF | inactive
DYYLATCYLPYALNCLAFLN | -1.18 ± 0.97
SVENQNIKRYT | 1.28 ± 0.33
LERKMYRNISSLTVVGYTMS | -0.095 ± 0.51
TPFGSVMVGYWQPIPLRDLG | 0.634 ± 0.54
LKVTCFRTYANFGRYDILVF | 0.096 ± 0.53
LCLRVEGGNKPTEHCITSPT | -0.234 ± 0.43
AAIAWVLN | 0.112 ± 0.58
NKYQLHMILKGFQGSAYWSV | -0.453 ± 0.81
YRLDFGWTMH | 0.3 ± 0.31
FACSFQSNLLDKKYTSLVNL | 0.051 ± 0.55
EGGRFKHRMNSCHYNSFGLH | -0.255 ± 0.76
SFLCCRVFLKSRRCRCGFMQ | 6.01 ± 0.046
SFAII | 0.91 ± 0.3
SWCNAYPQWWVRSLSMPS | -0.236 ± 0.55

Substance | amyloid nucleation score
RRLSMIMLFNPLSIWCFAQS | 0.408 ± 0.5
ARSTSALQL | -1.97 ± 1.8
CGAVHGGGWSAIYLNGYLGW | 0.186 ± 0.95
CKTGGFYRSVGRTTRFCHVE | -0.321 ± 0.39
GFVPLWLW | 0.977 ± 0.8
DLFFIG | 0.188 ± 0.38
GWCFVSRDLVNYLMCVTAGV | -1.02 ± 0.88
NSPKYLKLSCSTLLTALLGR | 1.16 ± 0.28
FLNFPYMLRDCLMIRFIELE | inactive
WLRMYLGINFSVRYCGRRVE | 0.465 ± 0.48
LRIFSA | 1.22 ± 0.8
SMYVPCRFSTDSTMLPNELK | -0.19 ± 0.66
GILLRH | -0.742 ± 1.2
SLLTRDVYNRRAR | -0.562 ± 0.36
RDPVLDVGLRCMWHNGGPFG | -0.035 ± 1.4
CHRRMMNEWSGLKNVLFKKG | 0.791 ± 0.97
TIQMFAVSTCCFFRFTLHWN | -0.598 ± 0.56
EVENRFVCGNSDLSGNDANK | -0.489 ± 0.75
VNVCESTPPDVESRGVCDAG | 2.06 ± 0.1
NIINLHYKYLVADVWGLKMF | -0.008 ± 0.93
PCSVVV | -0.246 ± 0.32
QRARIINRKHV | 0.214 ± 0.74

Substance | amyloid nucleation score
STILKWRSWLARFLIHMVVV | 0.659 ± 0.47
MQTVNFVFTRLIFISDFTIQ | 0.688 ± 0.26
TFGPTHLGLVKYVEIDYHVA | -0.725 ± 0.9
IKIRAFDTSSCSQFRVRPRV | 4.63 ± 0.095
EVPMVFRGNEGVSRDCSLVG | -0.469 ± 0.42
RKSDEGMKSPIGREIMGKSM | 0.431 ± 0.9
FVLFRLFEFASNIRVTFFF | -0.833 ± 0.62
YWKMRCM | 3.47 ± 0.19
SCACYGWSVYSLGNANRVLS | 0.465 ± 0.69
SVQRAV | -0.489 ± 1.7
TCIISTDGCMQAGHFVGDRR | -0.69 ± 0.54
SQVMSRLLGKFKLY | -0.609 ± 0.32
RSICWKSFRRIFFDRW | 0.19 ± 0.85
LSVNICKKY | 3.5 ± 0.1
KSCDSESFYGDTRSFHTDSV | -1.5 ± 1.3
KWVHEIRSSMVCVYLAGNSR | 0.677 ± 0.79
QLRYKIVMHRQSEHKPSLLN | -0.855 ± 1.5
RWNRSSDTCLCLHSMMLT | -0.518 ± 1.1
TVWKSLLHNSAAAGV | 0.109 ± 1.6
WQSCWIWTKCRTVDVRRKKD | -0.598 ± 0.43
MLFCVTRSVFSENCSLSLCT | inactive
GRATMGRGRCNLFGHKGHGH | 0.046 ± 0.55

Substance | amyloid nucleation score
IIQCNVTYAS | 3.63 ± 0.12
IMTESCCG | 0.743 ± 0.54
DASGNYWGWKLWGDQGERGY | inactive
HSNIRMCKAECSRGELH | 0.812 ± 0.61
FFCEIVMYGWSIM | 2.97 ± 0.14
CLDNWLGGHNSLSSYSG | 0.538 ± 0.37
RFISCMFFKYIPLQCFVLGR | 0.548 ± 0.39
KNSIYSCVTRTFSPMVLRYC | 0.557 ± 0.54
FLCVF | 0.097 ± 0.88
RFNWFL | -0.285 ± 0.86
VASRTLLCSLGRKRVVVCGC | -0.667 ± 0.29
TIALM | 0.335 ± 0.33
LCALSEVLVLCDSY | 0.29 ± 0.96
HGLGALYTSVRRARLGFFYC | 4.23 ± 0.15
GNKPLVVHGSGGICKLCE | -0.147 ± 0.38
RKGSVSQRDYSIDYWGFCRC | 1.37 ± 0.22
ICLLLCLVWDGCIATISNGL | -1.39 ± 2.1
IPRYCRRNMADSAIV | 0.923 ± 0.62
INLGFLWTCARDAVFLYDLS | 2.31 ± 0.17
QIIPTRFGWFSNRGCVLGSY | 1.08 ± 0.38
IIFNYPNPIYLNAKEVMLYI | 6.52 ± 0.067
